Experimental data: article PMC9245664 (Proceedings of the National Academy of Sciences of the …, 2022)
Substitutions are numbered along the chain they refer to.

What was measured:
Test in all cases: NMR titration
[1] = target: T1, Wzc_(CDΔC,ΔCys) (Cys544Ser/Cys563Ser) (E. coli (K-12), UniProt P76387 447-704, Cys544Ser | Cys563Ser)
T1 sequence: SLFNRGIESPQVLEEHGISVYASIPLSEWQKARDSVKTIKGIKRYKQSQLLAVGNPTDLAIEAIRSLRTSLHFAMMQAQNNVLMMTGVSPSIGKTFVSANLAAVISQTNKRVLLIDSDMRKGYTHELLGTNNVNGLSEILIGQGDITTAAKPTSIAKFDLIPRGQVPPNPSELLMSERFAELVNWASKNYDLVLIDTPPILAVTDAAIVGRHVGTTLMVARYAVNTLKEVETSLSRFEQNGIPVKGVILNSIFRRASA

[2] = target: T2, Wzc_(CDΔC,ΔCys,Val466Cys) (E. coli (K-12), UniProt P76387 447-704, Cys544Ser | Cys563Ser | Val466Cys)
T2 sequence: T1 sequence with V20C

[3] = target: T3, Wzc_(CDΔC,ΔCys,Leu505Cys) (E. coli (K-12), UniProt P76387 447-704, Cys544Ser | Cys563Ser | Leu505Cys)
T3 sequence: T1 sequence with L59C

[4] = target: T4, Wzc_(CDΔC,ΔCys,Ser516Cys) (E. coli (K-12), UniProt P76387 447-704, Cys544Ser | Cys563Ser | Ser516Cys)
T4 sequence: T1 sequence with S70C

[5] = target: T5, Wzc_(CDΔC,ΔCys,Gln523Cys) (E. coli (K-12), UniProt P76387 447-704, Cys544Ser | Cys563Ser | Gln523Cys)
T5 sequence: T1 sequence with Q77C

[6] = target: T6, Wzc_(CDΔC,ΔCys,Lys556Cys) (E. coli (K-12), UniProt P76387 447-704, Cys544Ser | Cys563Ser | Lys556Cys)
T6 sequence: T1 sequence with K110C

Kd [1]: 15.2 ± 0.6 µM
Kd [2]: 8.9 ± 0.3 µM
Kd [3]: 43.8 ± 1.3 µM
Kd [4]: 11.3 ± 0.7 µM
Kd [5]: 16.9 ± 0.5 µM
Kd [6]: 7.3 ± 0.4 µM
B1: full-length E. coli (K-12) Wzb, wild type (enzyme)
chain: MFNNILVVCVGNICRSPTAERLLQRYHPELKVESAGLGALVGKGADPTAISVAAEHQLSLEGHCARQISRRLCRNYDLILTMEKRHIERLCEMAPEMRGKVMLFGHWDNECEIPDPYRKSRETFAAVYTLLERSARQWAQALNAEQV
